Assay results as given in the supplement of paper PMC9170038.

Experiments:
MS2 coat protein [1] = experiment: apparent KD of MS2 coat protein, switch ON state; designed switch direction (-1 OFF switch, 1 ON switch): -1; higher = weaker reporter binding; conditions: FMN input: 0 or 200 uM; Eterna round: R93 (includes R88 designs)
In short: (§1)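 Each design's apparent KD comes from the median of binding-curve fits to its normalised clusters. Those clusters carried RNA switches transcribed on-chip from Illumina sequencing clusters. SNAP-549-labelled MS2 coat protein was titrated onto them in twofold steps (0.7 or 1.5 nM to 3 µM; per step 0.8–1.5 h down to 10–20 min). Conditions were 100 mM Tris-HCl pH 7.5, 80 mM KCl, 4 mM MgCl2, without or with constant ligand.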

MS2 coat protein [2] = experiment: apparent KD of MS2 coat protein, switch OFF state (with FMN for OFF switches, without FMN for ON switches); designed switch direction (-1 OFF switch, 1 ON switch): -1; higher = weaker reporter binding; conditions: FMN input: 0 or 200 uM; Eterna round: R93 (includes R88 designs)
In short: as §1

Row | Sequence | apparent KD of MS2 coat protein (MS2 coat protein [1]) [nM] | apparent KD of MS2 coat protein (MS2 coat protein [2]) [nM]
1 | AACAGUACAGGAUAUACAUGAGGAUCACCCAUGUAAAAUAAAUAAAAAUAAAAAGGGAGUAGAAGGGUACUGGA [Moding Maslow revisited (73) 19] | 37.2 | 50.3
2 | AGCUAGUGAGGAUAUGCGAACAUGUCAAAAGACGUGAAGGGACAUGAGGAUCACCCAUGUAGAAGGCGCUAGCA [JL 74% mod 2] | 33 | 32.7
3 | AAGAAGACAGGAUAUACAUGAGGAUCACCCAUGUAAAAGAAAGAAAAGGGAAAGAAAAGUAGAAGGGUCAAGAA [Menkheperure Thutmose IV] | 39.6 | 36.8
4 | CUCAAGUAAGGAUAUGCAAGAAAAGAAGAGAAAGAAAAGAAGCAGAAGGUACAUGAGGAUCACCCAUGUAAGAA [EteRNA is fun!] | 37.3 | 35.8
5 | AACUGACAUGAGGAUCACCCAUGUCAGGAUAUGACAUCGAAAAAAAAAAAAAUCGUUGUCAGAAGGGACAUGGA [Design 74: Sub-opt R] | 20.9 | 32.5
6 | AAGAACUGAGGAUAUACAUAAUAAAAGAAAAGAAACAAAGAACAUGAGGAUCACCCAUGUAGAAGGCGGAAGAA [Menwadjre Sihathor] | 29.4 | 20.7
7 | AAAAAACAUGAGGAUCACCCAUGUCAGGAUAUCUGGAGAAACGGAAAGAAAAAGAAACGGAGAAGGGACAUAAA [Starryjess mod] | 29.6 | 28.5
8 | CUCAAGUUAGGAUAUAGAAGAAAAGAAGAGAAAGAAAAGAACUAGAAGGAACAUGAGGAUCACCCAUGUAAGAA [EteRNA is fun!] | 31.2 | 20.5
9 | GAAAAACAUGAGGAUCACCCAUGUCAGGAUAUCCAAAUAAAAAUAAAAUAAAAUAAAAGGAGAAGGGACAAAAG [Mat - Same state - Mayanna Mod - D101] | 42.4 | 40
10 | AAAAAGUUAGGAUAUACAUGAGGAUCACCCAUGUACAUAUAUGGAGAAUAUAGUAGUAGUAGAAGGGACAAAAA [EX2 Malc#14] | 21 | 26.9
11 | AUCAUGUCAGGAUAUCAGUAGUAAAAAAAAAAAAUUACUACUGAGAAGGGACAUGAGGAUCACCCAUGUCCAAA [EX4 306: Super Stable 6] | 32.1 | 46.2
12 | GAAAAGUCAGGAUAUGUGGAAAAAAUAAAAAAAAUAAAAACACAGAAGGGACAUGAGGAUCACCCAUGUUAAAG [Mat - Exclusion 4 - Mayanna - D138] | 41.5 | 32.5
13 | CUAGUACAUGAGGAUCACCCAUGUCAGGAUAUUGGAUAUGCCAUGGAAAACAUGUUUACAAGAAGGGACUAUAG [EX1 Malc#22] | 32.9 | 36.4
14 | AACAAGUGAGGAUAUCGGAAAAGAAAAUAAGAUACACAAAACGAGAAGGCACAUGAGGAUCACCCAUGUAAAUA [JR_Exc004_Sub012] | 35.9 | 41.5
15 | AACAUGUUAGGAUAUCUAAGAAAAGAAAAGAAAGAAAAGAAAGAGAAGGAACAUGAGGAUCACCCAUGUAAGAA [EteRNA is fun!] | 30.1 | 22.1
16 | ACAGUUACAGGAUAUACAAGGGAAAAUAAAAAUAAACUUCAACAUGAGGAUCACCCAUGUAGAAGGGUAACUGA [Ex2 Design 199: Random 14] | 35.5 | 112
17 | GGUUGUCGAGGAUAUACAUGAGGAUCACCCAUGUGAGAGAAAAAAGUGAGAAAGAAAAGUAGAAGGCGAUGACG [salish99-ex3-58] | 38.2 | 180

Row | Sequence | apparent KD of MS2 coat protein (MS2 coat protein [1]) [nM] | apparent KD of MS2 coat protein (MS2 coat protein [2]) [nM]
18 | AAAAAACAUGAGGAUCACCCAUGUAAGGAUAUGCAAAACCCAUAUAAAAAGGGAAAAAGCAGAAGGUACAAAAA [Starry Exclusion 1.1 (wbt round 1 mod)] | 24.9 | 33.1
19 | GGAAAGCGAGGAUAUACAUGAGGAUCACCCAUGUUAACAAACAAACAAACAAACAAAAGUAGAAGGCGCAAAAU [Exclusion 3 This and That] | 42.6 | 41.1
20 | AGGGAACAUGAGGAUCACCCAUGUGAGGAUAUUGAAAAGAAAAGAAAAGAAAGAAGAACAAGAAGGUACAAGAA [Meryre Pepi I] | 21.8 | 24.8
21 | AAGAACGCAGGAUAUACAUGAAAGAAAGAAAAGAAAAGAAAACAUGAGGAUCACCCAUGUAGAAGGGCGAAGAA [EteRNA is fun!] | 37.9 | 39.6
22 | AAGAAAGCAGGAUAUACAUGAGGAUCACCCAUGUAAAAGAAAGAGGGAAAAGAGAAAAGUAGAAGGGCUAAGAA [Cleopatra IV] | 37.3 | 33.8
23 | AGAAUUGUAGGAUAUACAUGAGGAUCACCCAUGUGGGAGGUGGAGCAAACAAGACGAGGUAGAAGGACAACGAC [JR_Exc003-Sub904] | 134 | 125
24 | AAAAAACAUGAGGAUCACCCAUGUAAGGAUAUCGGAAAAGGAAAAAUAAAAAAGAAGACGAGAAGGUACACCAA [Mat - Exclusion 1 - Eli mod - D78] | 25.8 | 24
25 | AAAAGCACAGGAUAUACAUAAUUAUGACGAAAGUCAUAAAAACAUGAGGAUCACCCAUGUAGAAGGGUGCAAAA [Mod of Meechl's... 64% 1] | 118 | 37.8
26 | GAUAGUGAAGGAUAUACUGGAGGAGUGCGAUAAAAGAAAGAACAUGAGGAUCACCCAUGUAGAAGGUCAGAAGU [JR_Exc002_Sub1226] | 24.7 | 27.3
27 | GAAAAGUGAGGAUAUACAUGAGGAUCACCCAUGUGUAUAAAAAAAUACACAAAAGAAAGUAGAAGGCACUAAAA [Mat - Exclusion 3 - Mayanna mod - D111] | 25.8 | 65.9
28 | AAAAAGGAAGGAUAUACGAACAUGUCAAAAGACGUGAAGGGACAUGAGGAUCACCCAUGUAGAAGGUCUAAAAA [JL Half Open 26] | 32.4 | 22.9
29 | AAAAAGUCAGGAUAUGCGAAGGCGUCUGAUAGACGAGGCUAGCAGAAGGGACAUGAGGAUCACCCAUGUGGAAG [Mat - Exclusion 4 - Eli mod - D89] | 81.3 | 121
30 | AAUGCGGCAGGAUAUACAUGAGGAUCACCCAUGUACAUCAGAUAUAUGGUCGAACCAUGUAGAAGGGCCGCAAA [Ex 3May 57] | 87.3 | 202
31 | AAGAAUGGAGGAUAUACAUGAGGAUCACCCAUGUAAAAGAAAGAGGGAAAAGAGAAAAGUAGAAGGCCAAAGAA [Ptolemy VII Neos Philopator] | 36 | 34.4
32 | GGAAAACAUGAGGAUCACCCAUGUAAGGAUAUGCUAGGGAAGGAAAAAAACCCACCAGGCAGAAGGUACUAAAG [Janelle Amethyst 18 Mod 5 - Jieux - Exclusion 1] | 22.9 | 41.4
33 | AACGAGUCAGGAUAUACAAAAAGUAAAUAAGUAAAACCAAAGUAGAAGGGACAUGAGGAUCACCCAUGUAAAUA [JR_Exc004_Sub019] | 42.8 | 24.4
